Where a chain is given by its changes, count along the chain named.
Legend:
Test in all cases: EMSA
Conditions in all cases: tags: MBP fusion
ZFP SBS#1500 = ZFP SBS#1500 (synthetic)
Outline: (§1)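 Purified ZFP was titrated against labeled double-stranded target (1 nM or lower, at least 10-fold below expected Kd) carrying the natural binding site with flanks. Binding buffer was 10 mM Tris pH 7.5, 100 mM KCl, 1 mM MgCl2, 0.1 mM ZnCl2, 5 mM DTT, 10% glycerol, 0.02% BSA, with equilibration for at least 45 min. Bound and free target were separated on a 10% polyacrylamide gel.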

ZFP SBS#1457 = ZFP SBS#1457 (synthetic)
Outline: as §1

ZFP SBS#1522 = ZFP SBS#1522 (synthetic)
Outline: as §1

ZFP SBS#1486 = molecular target: T1, ZFP SBS#1486 (synthetic)
T1 chain: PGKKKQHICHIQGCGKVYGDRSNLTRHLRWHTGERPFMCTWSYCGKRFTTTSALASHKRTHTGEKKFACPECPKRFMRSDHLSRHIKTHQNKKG
Outline: as §1

ZFP SBS#1494 = molecular target: T2, ZFP SBS#1494 (synthetic)
T2 chain: T1 chain with T50Q, T51R
Outline: as §1

ZFP SBS#544 = molecular target: T3, ZFP SBS#544 (synthetic)
T3 chain: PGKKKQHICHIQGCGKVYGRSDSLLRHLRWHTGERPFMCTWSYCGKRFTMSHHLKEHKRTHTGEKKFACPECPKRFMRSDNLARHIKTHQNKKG
Outline: as §1

ZFP SBS#552 = molecular target: T4, ZFP SBS#552 (synthetic)
T4 chain: T3 chain with S21K, L25V, E56T, A83T
Outline: as §1

ZFP SBS#545 = molecular target: T5, ZFP SBS#545 (synthetic)
T5 chain: T3 chain with S21K, L25V, M50T, H52D, K55A, E56S, A83T
Outline: as §1

ZFP SBS#554 = molecular target: T6, ZFP SBS#554 (synthetic)
T6 chain: T3 chain with S21K, L25V, M50T, H52D, K55A, E56S
Outline: as §1

ZFP SBS#548 = molecular target: T7, ZFP SBS#548 (synthetic)
T7 chain: T3 chain with D22S, S23L, L25Q, E56T, N81H, A83S
Outline: as §1

ZFP SBS#543 = ZFP SBS#543 (synthetic)
Outline: as §1

ZFP SBS#553 = molecular target: T8, ZFP SBS#553 (synthetic)
T8 chain: T3 chain with A83T
Outline: as §1

ZFP SBS#549 = molecular target: T9, ZFP SBS#549 (synthetic)
T9 chain: T3 chain with D22S, S23L, L25Q, N81H, A83S
Outline: as §1

ZFP SBS#551 = ZFP SBS#551 (synthetic)
Outline: as §1

ZFP SBS#547 = molecular target: T10, ZFP SBS#547 (synthetic)
T10 chain: T3 chain with S21K, L25V, M50T, H52G, K55T, E56S, A83T
Outline: as §1

ZFP SBS#560 = molecular target: T11, ZFP SBS#560 (synthetic)
T11 chain: T3 chain with D22S, S23L, L25Q, E56T, N81H, A83S
Outline: as §1

ZFP SBS#546 = ZFP SBS#546 (synthetic)
Outline: as §1

ZFP SBS#550 = molecular target: T12, ZFP SBS#550 (synthetic)
T12 chain: T3 chain with S21K, L25V, M50T, S51K, H52D, K55A, E56S, A83T
Outline: as §1

ZFP SBS#1497 = ZFP SBS#1497 (synthetic)
Outline: as §1

ZFP SBS#1493 = ZFP SBS#1493 (synthetic)
Outline: as §1

ZFP SBS#1488 = ZFP SBS#1488 (synthetic)
Outline: as §1

ZFP SBS#1492 = molecular target: T13, ZFP SBS#1492 (synthetic)
T13 chain: T3 chain with S23N, L25T, R26T, M50R, H52D, K55T, E56T, A83T, R84Q
Outline: as §1

ZFP SBS#1460 = molecular target: T14, ZFP SBS#1460 (synthetic)
T14 chain: T3 chain with S23N, L25A, M50R, H52D, K55T, E56R, S79A, N81A, A83M, R84V
Outline: as §1

ZFP SBS#1496 = ZFP SBS#1496 (synthetic)
Outline: as §1

ZFP SBS#1499 = molecular target: T15, ZFP SBS#1499 (synthetic)
T15 chain: T1 chain with D20Q, R21S, T25A, T51S, S52G, A55T, S56R, H81N, S83A
Outline: as §1

ZFP SBS#1498 = molecular target: T16, ZFP SBS#1498 (synthetic)
T16 chain: T1 chain with D20Q, R21S, T25A, T50Q, T51S, A55T, S56R, H81N, S83A
Outline: as §1

ZFP SBS#546 (synthetic), sequence (chain, as listed by the source): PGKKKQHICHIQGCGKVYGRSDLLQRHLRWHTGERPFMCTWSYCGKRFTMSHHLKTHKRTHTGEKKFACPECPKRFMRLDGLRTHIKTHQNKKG
ZFP SBS#1457 (synthetic), sequence (chain, as listed by the source): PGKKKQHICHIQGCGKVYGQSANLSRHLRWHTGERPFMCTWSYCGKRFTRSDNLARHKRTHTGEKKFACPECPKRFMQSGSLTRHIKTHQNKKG
ZFP SBS#1496 (synthetic), sequence (chain, as listed by the source): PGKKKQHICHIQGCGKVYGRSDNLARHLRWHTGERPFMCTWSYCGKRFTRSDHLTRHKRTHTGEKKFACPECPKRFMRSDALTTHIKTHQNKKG
ZFP SBS#1488 (synthetic), sequence (chain, as listed by the source): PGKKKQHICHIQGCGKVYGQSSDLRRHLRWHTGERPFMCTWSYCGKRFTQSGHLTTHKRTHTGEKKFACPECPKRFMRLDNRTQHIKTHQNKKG
ZFP SBS#1522 (synthetic), sequence (chain, as listed by the source): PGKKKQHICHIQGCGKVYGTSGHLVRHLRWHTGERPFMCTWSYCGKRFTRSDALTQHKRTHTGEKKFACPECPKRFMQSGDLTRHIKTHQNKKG

B1: GCAGAGGAA (dsDNA)
DNA 1: GCAGAGGAA
DNA 2: TTCCTCTGC
Kd (ZFP SBS#1500): 0.003 nM
Kd (ZFP SBS#1457): 0.014 nM

B2: GCAATGGGT (dsDNA)
DNA 1: GCAATGGGT
DNA 2: ACCCATTGC
Kd (ZFP SBS#1522): 0.08 nM

B3: GGGTTTGAC (dsDNA)
DNA 1: GGGTTTGAC
DNA 2: GTCAAACCC
Kd (ZFP SBS#1486): 0.085 nM
Kd (ZFP SBS#1494): 0.255 nM

B4: GAGTGTGTGA (dsDNA)
DNA 1: GAGTGTGTGA
DNA 2: TCACACACTC
Kd (ZFP SBS#544): 125 nM
Kd (ZFP SBS#552): 31 nM
Kd (ZFP SBS#545): 32 nM
Kd (ZFP SBS#554): 62.5 nM
Kd (ZFP SBS#548): 500 nM
Kd (ZFP SBS#543): 50 nM
Kd (ZFP SBS#553): 125 nM
Kd (ZFP SBS#549): 500 nM
Kd (ZFP SBS#551): 50 nM
Kd (ZFP SBS#547): 500 nM
Kd (ZFP SBS#560): 500 nM
Kd (ZFP SBS#546): 500 nM
Kd (ZFP SBS#550): 20 nM

B5: GAGGCTCTT (dsDNA)
DNA 1: GAGGCTCTT
DNA 2: AAGAGCCTC
Kd (ZFP SBS#1497): 0.007 nM

B6: AAGTGGTAG (dsDNA)
DNA 1: AAGTGGTAG
DNA 2: CTACCACTT
Kd (ZFP SBS#1493): 15.1 nM
Kd (ZFP SBS#1488): 5.64 nM
Kd (ZFP SBS#1492): 1.37 nM

B7: TTGGGGGAG (dsDNA)
DNA 1: TTGGGGGAG
DNA 2: CTCCCCCAA
Kd (ZFP SBS#1460): 0.007 nM
Kd (ZFP SBS#1496): 0.065 nM

B8: GAGGTTGAT (dsDNA)
DNA 1: GAGGTTGAT
DNA 2: ATCAACCTC
Kd (ZFP SBS#1499): 0.02 nM
Kd (ZFP SBS#1498): 0.101 nM
